Measurements: paper PMC4117754

Legend:
PTB-GFP = PTB-GFP (UniProt P26599); assay: single-molecule TIRF; conditions: Filter binding: 5 mM Hepes pH 7.4, 100 mM KCl, 3 mM MgCl2, 5% glycerol, 75 ug/ml yeast tRNA, 75 ug/ml BSA, 0.5 mM DTT, room temp, probing: 20 mM HEPES-KOH pH 7.
[1] = tested on: PTB1 C3mC4 C250S;C251S;E518C;del1-55, P26599-1; assay: filter binding; conditions: Filter binding: 5 mM Hepes pH 7.4, 100 mM KCl, 3 mM MgCl2, 5% glycerol, 75 ug/ml yeast tRNA, 75 ug/ml BSA, 0.5 mM DTT, room temp; probing: 20 mM HEPES-KOH pH 7.
Sequence of PTB1 C3mC4 C250S;C251S;E518C;del1-55, P26599-1 (P26599 other isoform, or with tags, fused parts or gaps C250S C251S E518C): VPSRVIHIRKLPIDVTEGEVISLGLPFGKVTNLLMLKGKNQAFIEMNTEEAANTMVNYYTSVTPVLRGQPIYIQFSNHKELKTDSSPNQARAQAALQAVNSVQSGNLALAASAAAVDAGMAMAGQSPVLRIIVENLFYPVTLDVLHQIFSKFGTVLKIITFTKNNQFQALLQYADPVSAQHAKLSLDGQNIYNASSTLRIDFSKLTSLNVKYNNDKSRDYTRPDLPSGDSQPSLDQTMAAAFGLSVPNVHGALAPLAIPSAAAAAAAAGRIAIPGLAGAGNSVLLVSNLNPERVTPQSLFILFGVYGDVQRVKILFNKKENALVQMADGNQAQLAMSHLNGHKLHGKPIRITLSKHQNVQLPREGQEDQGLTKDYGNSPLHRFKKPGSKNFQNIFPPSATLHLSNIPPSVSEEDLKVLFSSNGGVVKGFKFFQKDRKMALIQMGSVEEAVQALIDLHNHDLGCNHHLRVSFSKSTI

[2] = tested on: PTB1 C1mC2m C250S;C251S;Q124C;D284C;I214S;F216A;K218S;del1-55, P26599-1; assay: filter binding; conditions: Filter binding: 5 mM Hepes pH 7.4, 100 mM KCl, 3 mM MgCl2, 5% glycerol, 75 ug/ml yeast tRNA, 75 ug/ml BSA, 0.5 mM DTT, room temp; probing: 20 mM HEPES-KOH pH 7.
Sequence of PTB1 C1mC2m C250S;C251S;Q124C;D284C;I214S;F216A;K218S;del1-55, P26599-1 (P26599 other isoform, or with tags, fused parts or gaps C250S C251S Q124C D284C I214S F216A K218S): as the sequence (P26599 other isoform, or with tags, fused parts or gaps C250S C251S E518C) above, with Q69C, I159S, F161A, K163S, D229C, C463E counted along it

[3] = tested on: PTB1 C4pack C250S;C251S;E518C;E502K;V505E;I509K;del1-55, P26599-1; assay: filter binding; conditions: Filter binding: 5 mM Hepes pH 7.4, 100 mM KCl, 3 mM MgCl2, 5% glycerol, 75 ug/ml yeast tRNA, 75 ug/ml BSA, 0.5 mM DTT, room temp; probing: 20 mM HEPES-KOH pH 7.
Sequence of PTB1 C4pack C250S;C251S;E518C;E502K;V505E;I509K;del1-55, P26599-1 (P26599 other isoform, or with tags, fused parts or gaps C250S C251S E518C E502K V505E I509K): as the sequence (P26599 other isoform, or with tags, fused parts or gaps C250S C251S E518C) above, with E447K, V450E, I454K counted along it

[4] = tested on: PTB1 C3C4 C250S;C251S;E518C;del1-55, P26599-1; assay: filter binding; conditions: Filter binding: 5 mM Hepes pH 7.4, 100 mM KCl, 3 mM MgCl2, 5% glycerol, 75 ug/ml yeast tRNA, 75 ug/ml BSA, 0.5 mM DTT, room temp; probing: 20 mM HEPES-KOH pH 7.
Sequence of PTB1 C3C4 C250S;C251S;E518C;del1-55, P26599-1 (P26599 other isoform, or with tags, fused parts or gaps C250S C251S E518C): as the sequence (P26599 other isoform, or with tags, fused parts or gaps C250S C251S E518C) above

[5] = tested on: PTB1 C3C4m C250S;C251S;E518C;del1-55, P26599-1; assay: filter binding; conditions: Filter binding: 5 mM Hepes pH 7.4, 100 mM KCl, 3 mM MgCl2, 5% glycerol, 75 ug/ml yeast tRNA, 75 ug/ml BSA, 0.5 mM DTT, room temp; probing: 20 mM HEPES-KOH pH 7.
Sequence of PTB1 C3C4m C250S;C251S;E518C;del1-55, P26599-1 (P26599 other isoform, or with tags, fused parts or gaps C250S C251S E518C): as above

[6] = tested on: PTB1 C1mC2 C250S;C251S;Q124C;D284C;del1-55, P26599-1; assay: filter binding; conditions: Filter binding: 5 mM Hepes pH 7.4, 100 mM KCl, 3 mM MgCl2, 5% glycerol, 75 ug/ml yeast tRNA, 75 ug/ml BSA, 0.5 mM DTT, room temp; probing: 20 mM HEPES-KOH pH 7.
Sequence of PTB1 C1mC2 C250S;C251S;Q124C;D284C;del1-55, P26599-1 (P26599 other isoform, or with tags, fused parts or gaps C250S C251S Q124C D284C): as the sequence (P26599 other isoform, or with tags, fused parts or gaps C250S C251S E518C) above, with Q69C, D229C, C463E counted along it

[7] = tested on: PTB1 C4 C250S;C251S;E518C;del1-55, P26599-1; assay: filter binding; conditions: Filter binding: 5 mM Hepes pH 7.4, 100 mM KCl, 3 mM MgCl2, 5% glycerol, 75 ug/ml yeast tRNA, 75 ug/ml BSA, 0.5 mM DTT, room temp; probing: 20 mM HEPES-KOH pH 7.
Sequence of PTB1 C4 C250S;C251S;E518C;del1-55, P26599-1 (P26599 other isoform, or with tags, fused parts or gaps C250S C251S E518C): as the sequence (P26599 other isoform, or with tags, fused parts or gaps C250S C251S E518C) above

[8] = tested on: PTB1 C3mC4m C250S;C251S;E518C;del1-55, P26599-1; assay: filter binding; conditions: Filter binding: 5 mM Hepes pH 7.4, 100 mM KCl, 3 mM MgCl2, 5% glycerol, 75 ug/ml yeast tRNA, 75 ug/ml BSA, 0.5 mM DTT, room temp; probing: 20 mM HEPES-KOH pH 7.
Sequence of PTB1 C3mC4m C250S;C251S;E518C;del1-55, P26599-1 (P26599 other isoform, or with tags, fused parts or gaps C250S C251S E518C): as above

[9] = tested on: PTB1 C1C2m C250S;C251S;Q124C;D284C;I214S;F216A;K218S;del1-55, P26599-1; assay: filter binding; conditions: Filter binding: 5 mM Hepes pH 7.4, 100 mM KCl, 3 mM MgCl2, 5% glycerol, 75 ug/ml yeast tRNA, 75 ug/ml BSA, 0.5 mM DTT, room temp; probing: 20 mM HEPES-KOH pH 7.
Sequence of PTB1 C1C2m C250S;C251S;Q124C;D284C;I214S;F216A;K218S;del1-55, P26599-1 (P26599 other isoform, or with tags, fused parts or gaps C250S C251S Q124C D284C I214S F216A K218S): as the sequence (P26599 other isoform, or with tags, fused parts or gaps C250S C251S E518C) above, with Q69C, I159S, F161A, K163S, D229C, C463E counted along it

[10] = tested on: PTB1 C1C2 C250S;C251S;Q124C;D284C;del1-55, P26599-1; assay: filter binding; conditions: Filter binding: 5 mM Hepes pH 7.4, 100 mM KCl, 3 mM MgCl2, 5% glycerol, 75 ug/ml yeast tRNA, 75 ug/ml BSA, 0.5 mM DTT, room temp; probing: 20 mM HEPES-KOH pH 7.
Sequence of PTB1 C1C2 C250S;C251S;Q124C;D284C;del1-55, P26599-1 (P26599 other isoform, or with tags, fused parts or gaps C250S C251S Q124C D284C): as the sequence (P26599 other isoform, or with tags, fused parts or gaps C250S C251S E518C) above, with Q69C, D229C, C463E counted along it

[11] = tested on: PTB1 LmC4 C250S;C251S;E518C;K439A;K440A;del1-55, P26599-1; assay: filter binding; conditions: Filter binding: 5 mM Hepes pH 7.4, 100 mM KCl, 3 mM MgCl2, 5% glycerol, 75 ug/ml yeast tRNA, 75 ug/ml BSA, 0.5 mM DTT, room temp; probing: 20 mM HEPES-KOH pH 7.
Sequence of PTB1 LmC4 C250S;C251S;E518C;K439A;K440A;del1-55, P26599-1 (P26599 other isoform, or with tags, fused parts or gaps C250S C251S E518C K439A K440A): as the sequence (P26599 other isoform, or with tags, fused parts or gaps C250S C251S E518C) above, with K384A, K385A counted along it

[12] = tested on: PTB1 C4m C250S;C251S;E518C;del1-55, P26599-1; assay: filter binding; conditions: Filter binding: 5 mM Hepes pH 7.4, 100 mM KCl, 3 mM MgCl2, 5% glycerol, 75 ug/ml yeast tRNA, 75 ug/ml BSA, 0.5 mM DTT, room temp; probing: 20 mM HEPES-KOH pH 7.
Sequence of PTB1 C4m C250S;C251S;E518C;del1-55, P26599-1 (P26599 other isoform, or with tags, fused parts or gaps C250S C251S E518C): as the sequence (P26599 other isoform, or with tags, fused parts or gaps C250S C251S E518C) above

Sequence of PTB-GFP (P26599 whole entry): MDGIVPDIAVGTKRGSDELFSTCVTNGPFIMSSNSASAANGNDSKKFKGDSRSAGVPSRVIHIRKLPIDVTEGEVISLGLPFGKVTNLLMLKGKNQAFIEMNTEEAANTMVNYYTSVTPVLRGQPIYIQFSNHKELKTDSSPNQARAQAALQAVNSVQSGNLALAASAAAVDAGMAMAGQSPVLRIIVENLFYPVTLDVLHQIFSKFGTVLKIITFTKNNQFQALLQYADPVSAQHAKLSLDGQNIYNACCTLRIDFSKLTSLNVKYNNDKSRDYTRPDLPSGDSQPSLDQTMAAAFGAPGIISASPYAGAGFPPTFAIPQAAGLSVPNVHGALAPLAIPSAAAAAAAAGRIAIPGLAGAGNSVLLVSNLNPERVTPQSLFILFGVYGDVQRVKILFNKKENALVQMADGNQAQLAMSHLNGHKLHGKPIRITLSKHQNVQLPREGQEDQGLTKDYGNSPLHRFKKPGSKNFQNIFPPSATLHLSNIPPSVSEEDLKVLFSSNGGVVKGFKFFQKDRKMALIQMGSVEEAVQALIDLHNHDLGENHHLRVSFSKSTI

Substance	binding signal (% RNA with bound PTB-GFP) (PTB-GFP)	Kd [1] [nM]	Kd [2] [nM]	Kd [3] [nM]	Kd [4] [nM]	Kd [5] [nM]	Kd [6] [nM]	Kd [7] [nM]	Kd [8] [nM]	Kd [9] [nM]	Kd [10] [nM]	Kd [11] [nM]	Kd [12] [nM]	Kd (PTB-GFP; average Kd, 3-4 PTB sites, 2.6% of RNA with bound PTB-GFP, nuclear extract) [nM]
Tpm1 RNA	7.9	–	–	–	–	–	–	–	–	–	–	–	–	–
AUGUGAACAUGGAAUCAUCAAGGAAUGCACACUCACCAGCAACACCAAGUGCAAAGAGGAAGGUAAUUAUUUUUUUACGGUUAUAUUCUCCUUUCCCCCAACCCCAUGGAAAGAUGUGAAGAAAAACCAAUCACUCUUGAUUACUAGAAAGUCCUUUAUUUAAUCUUAAAGAUUGCUUAUUUUCAUAUAAAAUGUCCAAUGUUCCAACCUACAGGAUCCAGAUCUAACUUGGGGUGGCUUUGUCUUCUUCUUUUGCCAAUUCCACUAAUUGUUUGGGGUAAGUUCUUGCUUUGUUCAAACUGCAGAUUGAAAUAACUUGGGAAGUAGGUGUGAAAGUAUGUUCUCACAUGCAUUCUACAAGGCUGAGACCUGAGUUGAUAAAAUUUCUUUGUUCUUUCAGUGAAGAGAAAGGAAGUACAGAAAACAUGCAGAAAGCACAGAAAGGAA [FAS WT RNA (exon 5-6-7)]	–	16.5	12.3	6.3	14.7	22.9	11.6	10.3	24.6	15.3	10.1	14.2	29.9	20
AUGUGAACAUGGAAUCAUCAAGGAAUGCACACUCACCAGCAACACCAAGUGCAAAGAGGAAGGUAAUUAUUUUUUUACGGUUAUAUUCUCCUUUCCCCCAACCCCAUGGAAAGAUGUGAAGAAAAACCAAUCACUCUUGAUUACUAGAAAGUCCUUUAUUUAAUCUUAAAGAUUGCUUAUUUUCAUAUAAAAUGUCCAAUGUUCCAACCUACAGGAUCCAGAUCUAACUUGGGGUGGCAAUGCACACUCACCAGGCCAAUUCCACUAAUUGUUUGGGGUAAGUUCUUGCUUUGUUCAAACUGCAGAUUGAAAUAACUUGGGAAGUAGGUGUGAAAGUAUGUUCUCACAUGCAUUCUACAAGGCUGAGACCUGAGUUGAUAAAAUUUCUUUGUUCUUUCAGUGAAGAGAAAGGAAGUACAGAAAACAUGCAGAAAGCACAGAAAGGAA [FAS m0 mutant RNA]	2.9	–	–	–	–	–	–	7.5	–	–	–	–	–	–
